Data published in patent US20260217779A1 (Chugai, published 2026).
Substitutions are numbered along the chain they refer to. Names may count otherwise.

T1: human CXCR3 (hCXCR3) on Ba/F3 transfectant cells (human, UniProt P49682 1-368)
T1 sequence: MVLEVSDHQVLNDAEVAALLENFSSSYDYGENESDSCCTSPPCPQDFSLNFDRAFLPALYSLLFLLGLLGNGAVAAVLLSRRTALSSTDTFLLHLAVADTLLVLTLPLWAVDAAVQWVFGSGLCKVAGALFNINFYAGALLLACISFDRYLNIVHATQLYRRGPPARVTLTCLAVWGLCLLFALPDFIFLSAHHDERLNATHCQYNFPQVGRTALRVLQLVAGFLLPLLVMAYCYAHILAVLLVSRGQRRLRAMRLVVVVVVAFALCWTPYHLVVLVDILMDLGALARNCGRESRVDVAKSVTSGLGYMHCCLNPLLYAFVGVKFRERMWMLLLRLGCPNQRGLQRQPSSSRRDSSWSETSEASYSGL

B1: hCXCL11.0008-G1T4k.one//VHn-G1T4h.one.H435R (Fc fusion)
chain 1: FHMFKRGRCLCIGPGVKAVKVADIEKASIMYPSNNCDKIEVIITLKENKGQRCLNPKSKQARLIIKKVERKNFEPKSSDKTHTCPPCPAPELRRGPSVFLFPPKPKDTLMISRTPEVTCVVVDVSHEDPEVKFNWYVDGVEVHNAKTKPREEQYNSTYRVVSVLTVLHQDWLNGKEYKCKVSNKGLPSSIEKTISKAKGQPREPQVCTLPPSREEMTKNQVSLWCLVKGFYPSDIAVEWESNGQPENNYKTTPPVLDSDGSFFLYSKLTVDKSRWQEGNVFSCSVMHEALHNHYTQKSLSLSP
chain 2: EPKSSDKTHTCPPCPAPELRRGPSVFLFPPKPKDTLMISRTPEVTCVVVDVSHEDPEVKFNWYVDGVEVHNAKTKPREEQYNSTYRVVSVLTVLHQDWLNGKEYKCKVSNKGLPSSIEKTISKAKGQPREPQVYTLPPSRCEMTKNQVSLSCAVKGFYPSDIAVEWESNGQPENNYKTTPPVLDSDGSFFLVSKLTVDKSRWQEGNVFSCSVMHEALHNRYTQKSLSLSP
B2: hCXCL11.0009-G1T4k.one//VHn-G1T4h.one.H435R (Fc fusion)
chain 1: B1 chain 1 with H2I
chain 2: B1 chain 2
B3: hCXCL11.0010-G1T4k.one//VHn-G1T4h.one.H435R (Fc fusion)
chain 1: B1 chain 1 with H2K
chain 2: B1 chain 2
B4: hCXCL11.0011-G1T4k.one//VHn-G1T4h.one.H435R (Fc fusion)
chain 1: B1 chain 1 with H2L
chain 2: B1 chain 2
B5: hCXCL11.0012-G1T4k.one//VHn-G1T4h.one.H435R (Fc fusion)
chain 1: B1 chain 1 with H2M
chain 2: B1 chain 2
B6: hCXCL11.0013-G1T4k.one//VHn-G1T4h.one.H435R (Fc fusion)
chain 1: B1 chain 1 with H2N
chain 2: B1 chain 2
B7: hCXCL11.0014-G1T4k.one//VHn-G1T4h.one.H435R (Fc fusion)
chain 1: B1 chain 1 with H2Q
chain 2: B1 chain 2
B8: hCXCL11.0015-G1T4k.one//VHn-G1T4h.one.H435R (Fc fusion)
chain 1: B1 chain 1 with H2R
chain 2: B1 chain 2
B9: hCXCL11.0016-G1T4k.one//VHn-G1T4h.one.H435R (Fc fusion)
chain 1: B1 chain 1 with H2S
chain 2: B1 chain 2
B10: hCXCL11.0017-G1T4k.one//VHn-G1T4h.one.H435R (Fc fusion)
chain 1: B1 chain 1 with H2T
chain 2: B1 chain 2
B11: hCXCL11.0018-G1T4k.one//VHn-G1T4h.one.H435R (Fc fusion)
chain 1: B1 chain 1 with H2V
chain 2: B1 chain 2
B12: hCXCL11.0019-G1T4k.one//VHn-G1T4h.one.H435R (Fc fusion)
chain 1: B1 chain 1 with H2W
chain 2: B1 chain 2
B13: hCXCL11.0020-G1T4k.one//VHn-G1T4h.one.H435R (Fc fusion)
chain 1: B1 chain 1 with H2Y
chain 2: B1 chain 2
B14: hCXCL11.0021-G1T4k.one//VHn-G1T4h.one.H435R (Fc fusion)
chain 1: AFPMFKRGRCLCIGPGVKAVKVADIEKASIMYPSNNCDKIEVIITLKENKGQRCLNPKSKQARLIIKKVERKNFEPKSSDKTHTCPPCPAPELRRGPSVFLFPPKPKDTLMISRTPEVTCVVVDVSHEDPEVKFNWYVDGVEVHNAKTKPREEQYNSTYRVVSVLTVLHQDWLNGKEYKCKVSNKGLPSSIEKTISKAKGQPREPQVCTLPPSREEMTKNQVSLWCLVKGFYPSDIAVEWESNGQPENNYKTTPPVLDSDGSFFLYSKLTVDKSRWQEGNVFSCSVMHEALHNHYTQKSLSLSP
chain 2: B1 chain 2
B15: hCXCL11.0022-G1T4k.one//VHn-G1T4h.one.H435R (Fc fusion)
chain 1: B14 chain 1 with A1D
chain 2: B1 chain 2
B16: hCXCL11.0023-G1T4k.one//VHn-G1T4h.one.H435R (Fc fusion)
chain 1: B14 chain 1 with A1E
chain 2: B1 chain 2

molecular target: T1, human CXCR3 (hCXCR3) on Ba/F3 …; assay: cell-based or functional assay

Compared with B1, B2 is lower in “Activity retention rate at 33 nM” value: 44% for the first, 13% for the second.

Compared with B3, B4 is lower in “Activity retention rate at 33 nM” value: 7% for the first, 3% for the second.

Going from B5 to B6, the “Activity retention rate at 33 nM” value rises from 17% to 71%.

First: B7
Second: B8
The “Activity retention rate at 33 nM” value of the first is higher: 105% for the first, 34% for the second.

Compared with B9, B10 is lower in “Activity retention rate at 33 nM” value: 65% for the first, 61% for the second.

Going from B11 to B12, the “Activity retention rate at 33 nM” value falls from 24% to 4%.

Compared with B13, B14 is higher in “Activity retention rate at 33 nM” value: 28% for the first, 108% for the second.

Going from B15 to B16, the “Activity retention rate at 33 nM” value rises from 178% to 189%.

Compared with B1, B2 is lower in “Activity retention rate at 100 nM” value: 73% for the first, 41% for the second.

Compared with B3, B4 is lower in “Activity retention rate at 100 nM” value: 30% for the first, 24% for the second.

Compared with B5, B6 is higher in “Activity retention rate at 100 nM” value: 46% for the first, 78% for the second.

Going from B7 to B8, the “Activity retention rate at 100 nM” value falls from 89% to 73%.

Going from B9 to B10, the “Activity retention rate at 100 nM” value falls from 75% to 74%.

First: B11
Second: B12
The “Activity retention rate at 100 nM” value of the first is higher: 50% for the first, 28% for the second.

Compared with B13, B14 is higher in “Activity retention rate at 100 nM” value: 62% for the first, 93% for the second.

Going from B15 to B16, the “Activity retention rate at 100 nM” value rises from 89% to 98%.

Compared with B1, B2 is higher in “Activity retention rate at 300 nM” value: 108% for the first, 109% for the second.

Going from B3 to B4, the “Activity retention rate at 300 nM” value rises from 63% to 77%.

Going from B5 to B6, the “Activity retention rate at 300 nM” value falls from 95% to 81%.

Going from B7 to B8, the “Activity retention rate at 300 nM” value rises from 60% to 98%.

B9 and B10 are the same in “Activity retention rate at 300 nM” value: 69% for the first, 69% for the second.

Compared with B11, B12 is higher in “Activity retention rate at 300 nM” value: 81% for the first, 93% for the second.

Going from B13 to B14, the “Activity retention rate at 300 nM” value falls from 95% to 84%.

Compared with B15, B16 is lower in “Activity retention rate at 300 nM” value: 49% for the first, 48% for the second.

Compared with B1, B2 is lower in “Luminescence value at 33 nM” value: 3.4e+06 for the first, 966000 for the second.

Going from B3 to B4, the “Luminescence value at 33 nM” value falls from 524000 to 262000.

Going from B5 to B6, the “Luminescence value at 33 nM” value rises from 1.33e+06 to 5.49e+06.

First: B7
Second: B8
The “Luminescence value at 33 nM” value of the first is higher: 8.07e+06 for the first, 2.62e+06 for the second.

Going from B9 to B10, the “Luminescence value at 33 nM” value falls from 4.95e+06 to 4.72e+06.

Compared with B11, B12 is lower in “Luminescence value at 33 nM” value: 1.85e+06 for the first, 325000 for the second.

Going from B13 to B14, the “Luminescence value at 33 nM” value rises from 2.15e+06 to 8.26e+06.

Compared with B15, B16 is higher in “Luminescence value at 33 nM” value: 1.37e+07 for the first, 1.45e+07 for the second.

First: B1
Second: B2
The “Luminescence value at 100 nM” value of the first is higher: 1.22e+07 for the first, 6.79e+06 for the second.

Going from B3 to B4, the “Luminescence value at 100 nM” value falls from 4.93e+06 to 4.02e+06.

Going from B5 to B6, the “Luminescence value at 100 nM” value rises from 7.6e+06 to 1.31e+07.

Compared with B7, B8 is lower in “Luminescence value at 100 nM” value: 1.48e+07 for the first, 1.23e+07 for the second.

Going from B9 to B10, the “Luminescence value at 100 nM” value falls from 1.25e+07 to 1.24e+07.

Going from B11 to B12, the “Luminescence value at 100 nM” value falls from 8.32e+06 to 4.66e+06.

First: B13
Second: B14
The “Luminescence value at 100 nM” value of the first is lower: 1.03e+07 for the first, 1.56e+07 for the second.

First: B15
Second: B16
The “Luminescence value at 100 nM” value of the first is lower: 1.48e+07 for the first, 1.64e+07 for the second.

Going from B1 to B2, the “Luminescence value at 300 nM” value rises from 1.34e+07 to 1.35e+07.

First: B3
Second: B4
The “Luminescence value at 300 nM” value of the first is lower: 7.78e+06 for the first, 9.6e+06 for the second.

First: B5
Second: B6
The “Luminescence value at 300 nM” value of the first is higher: 1.18e+07 for the first, 1.01e+07 for the second.

Compared with B7, B8 is higher in “Luminescence value at 300 nM” value: 7.51e+06 for the first, 1.22e+07 for the second.

Compared with B9, B10 is lower in “Luminescence value at 300 nM” value: 8.57e+06 for the first, 8.54e+06 for the second.

First: B11
Second: B12
The “Luminescence value at 300 nM” value of the first is lower: 1.01e+07 for the first, 1.15e+07 for the second.

Going from B13 to B14, the “Luminescence value at 300 nM” value falls from 1.18e+07 to 1.04e+07.

Compared with B15, B16 is lower in “Luminescence value at 300 nM” value: 6.06e+06 for the first, 5.98e+06 for the second.
